From publication doi:10.1101/2023.07.18.549520 come the findings set out here.

For experiment [1], the target named is soluble type I collagen (acid-soluble type I atelocollagen from bovine hides) (bovine) (UniProt P02453). Kind of experiment: ELISA. (ELISA stands for enzyme-linked immunosorbent assay.)
The target of experiment [2] is type I gelatin (heat-denatured acid-soluble type I atelocollagen from bovine hides) (bovine) (UniProt P02453). Kind of experiment: ELISA.
For experiment [3], the target named is V-domain of Scl2.3 (Streptococcus pyogenes). Kind of experiment: SDS-PAGE.

As a reminder, the pKd is the Kd on a negative log10 scale, so that one unit is a factor of ten. Read a high pKd as a small Kd. Broadly, the stoichiometry N is the number of molecules, sites or subunits per partner or assembly.

pKd: −log10 of the molar value.

Chain of soluble type I collagen (acid-soluble type I atelocollagen from bovine hides) (bovine) (P02453 162-1217, chain 1 of 2): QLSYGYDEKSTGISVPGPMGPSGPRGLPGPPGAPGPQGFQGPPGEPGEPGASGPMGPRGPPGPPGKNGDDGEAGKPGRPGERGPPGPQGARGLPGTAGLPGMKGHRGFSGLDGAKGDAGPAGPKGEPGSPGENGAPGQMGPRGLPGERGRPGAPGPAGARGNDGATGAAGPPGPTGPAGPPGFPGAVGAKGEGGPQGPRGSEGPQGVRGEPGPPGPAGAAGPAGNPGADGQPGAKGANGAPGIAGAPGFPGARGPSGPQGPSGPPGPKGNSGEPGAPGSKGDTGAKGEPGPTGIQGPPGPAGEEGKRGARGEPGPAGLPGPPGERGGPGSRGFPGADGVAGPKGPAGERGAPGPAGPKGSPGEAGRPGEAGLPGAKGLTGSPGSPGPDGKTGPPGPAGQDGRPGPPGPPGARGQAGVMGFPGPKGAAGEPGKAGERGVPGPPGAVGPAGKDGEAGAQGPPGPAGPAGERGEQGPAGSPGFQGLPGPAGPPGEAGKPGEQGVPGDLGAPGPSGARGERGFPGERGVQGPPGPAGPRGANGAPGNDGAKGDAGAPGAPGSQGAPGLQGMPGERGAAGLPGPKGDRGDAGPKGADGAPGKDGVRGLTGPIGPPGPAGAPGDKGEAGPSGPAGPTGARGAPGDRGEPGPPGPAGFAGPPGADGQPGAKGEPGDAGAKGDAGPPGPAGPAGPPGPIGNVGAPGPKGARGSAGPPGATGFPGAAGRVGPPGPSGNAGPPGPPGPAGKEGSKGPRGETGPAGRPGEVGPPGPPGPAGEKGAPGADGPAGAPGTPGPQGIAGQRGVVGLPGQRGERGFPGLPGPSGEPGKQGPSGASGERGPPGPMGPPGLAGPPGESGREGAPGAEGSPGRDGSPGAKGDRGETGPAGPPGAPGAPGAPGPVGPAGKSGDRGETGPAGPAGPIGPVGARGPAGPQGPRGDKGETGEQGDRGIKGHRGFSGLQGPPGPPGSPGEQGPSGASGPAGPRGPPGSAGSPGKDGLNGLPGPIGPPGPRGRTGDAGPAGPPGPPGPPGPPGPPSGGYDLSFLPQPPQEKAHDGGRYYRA
Chain of soluble type I collagen (acid-soluble type I atelocollagen from bovine hides) (bovine) (P02465 80-1117, chain 2 of 2, further chain): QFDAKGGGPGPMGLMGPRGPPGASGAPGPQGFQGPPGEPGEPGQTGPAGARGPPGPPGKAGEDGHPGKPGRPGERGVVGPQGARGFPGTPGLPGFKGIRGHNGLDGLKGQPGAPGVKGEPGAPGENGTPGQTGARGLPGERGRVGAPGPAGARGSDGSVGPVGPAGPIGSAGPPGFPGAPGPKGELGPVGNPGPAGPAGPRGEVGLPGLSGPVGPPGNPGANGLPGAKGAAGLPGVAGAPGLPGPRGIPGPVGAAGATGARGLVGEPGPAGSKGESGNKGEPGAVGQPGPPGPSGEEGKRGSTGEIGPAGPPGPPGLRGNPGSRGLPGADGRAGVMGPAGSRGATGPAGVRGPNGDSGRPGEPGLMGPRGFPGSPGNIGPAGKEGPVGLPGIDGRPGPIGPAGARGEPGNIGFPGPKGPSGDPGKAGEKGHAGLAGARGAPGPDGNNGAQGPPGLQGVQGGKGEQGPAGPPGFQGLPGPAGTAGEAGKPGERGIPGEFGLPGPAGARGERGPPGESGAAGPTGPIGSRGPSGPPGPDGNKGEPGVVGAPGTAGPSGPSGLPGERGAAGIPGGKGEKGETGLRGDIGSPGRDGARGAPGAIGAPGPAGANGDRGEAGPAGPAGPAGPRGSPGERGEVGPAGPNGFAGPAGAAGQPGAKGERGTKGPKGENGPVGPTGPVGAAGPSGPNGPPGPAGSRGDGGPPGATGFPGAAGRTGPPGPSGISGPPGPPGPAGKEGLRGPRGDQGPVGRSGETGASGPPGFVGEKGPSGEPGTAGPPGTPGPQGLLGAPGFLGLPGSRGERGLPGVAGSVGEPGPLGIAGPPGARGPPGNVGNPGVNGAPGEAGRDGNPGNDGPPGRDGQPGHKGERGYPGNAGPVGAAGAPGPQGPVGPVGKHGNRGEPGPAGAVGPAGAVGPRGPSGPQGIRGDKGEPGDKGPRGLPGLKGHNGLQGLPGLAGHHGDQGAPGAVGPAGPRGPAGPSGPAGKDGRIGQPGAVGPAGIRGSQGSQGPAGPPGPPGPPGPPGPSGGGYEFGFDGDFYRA
Chain of type I gelatin (heat-denatured acid-soluble type I atelocollagen from bovine hides) (bovine) (P02453 162-1217, chain 1 of 2): as the sequence (P02453 162-1217, chain 1 of 2) above
Chain of type I gelatin (heat-denatured acid-soluble type I atelocollagen from bovine hides) (bovine) (P02465 80-1117, chain 2 of 2, further chain): as the sequence (P02465 80-1117, chain 2 of 2, further chain) above

As to “ColG-CU E524A (Y119-G790) (domain or fragment)”, the pKd was 6.43 in experiment [1] and 7.10 in experiment [2].

As to “ColG-PD E524A (D398-G790) (domain or fragment)”, the values for the pKd in experiment [1] and in experiment [2] were 3.30 and 3.61, respectively.

Take ColQ1-CU G472V (domain or fragment): the pKd in experiment [1] and in experiment [2] was 5.80 throughout.

In experiment [1], “ColQ1-CU G472V F176A (domain or fragment)” yielded a fold increase in affinity against ColQ1-CU G472V (WT) of 20 fold.

In turn, “ColQ1-CU G472V N226A (domain or fragment)” had a fold reduction in binding affinity against ColQ1-CU G472V (WT) in experiment [1] of over 90 fold. This substance also registered a fold drop in binding affinity against ColQ1-CU G472V (WT) in experiment [2] of 90 fold.

In the case of “ColQ1-CU G472V R169A (domain or fragment)”, in experiment [1], the fold increase in affinity against ColQ1-CU G472V (WT) stood at 9 fold.

In turn, “ColQ1-CU G472V Y173A (domain or fragment)” gave a fold drop in binding affinity against ColQ1-CU G472V (WT) in experiment [2] of 15 fold.

“ColQ1-CU G472V Y270A (domain or fragment)”: the fold increase in affinity against ColQ1-CU G472V (WT) in experiment [1] turned out to be 8 fold.

For V-domain of Scl2.3 (domain or fragment), the stoichiometry N in experiment [3] was 3.
